From patent publication US20260103529A1, “Amino Acid Sequences Directed Against the Melanocortin 4 Receptor and Polypeptides Comprising the Same for the Treatment of MC4R-Related Diseases and Disorders” (Confo Therapeutics N.V., priority 2022, published 2026)

Key:
human wild type MC5R = biological target: T1, human wild type MC5R (Homo sapiens, UniProt P33032); experiment: cAMP GloSensor assay, MC5R; type: cell-based
T1 construct: expressed in transfected cells; host or cells: HEK293 / HEK 293T, pcDNA3.1(+)
T1 sequence (P33032 whole entry): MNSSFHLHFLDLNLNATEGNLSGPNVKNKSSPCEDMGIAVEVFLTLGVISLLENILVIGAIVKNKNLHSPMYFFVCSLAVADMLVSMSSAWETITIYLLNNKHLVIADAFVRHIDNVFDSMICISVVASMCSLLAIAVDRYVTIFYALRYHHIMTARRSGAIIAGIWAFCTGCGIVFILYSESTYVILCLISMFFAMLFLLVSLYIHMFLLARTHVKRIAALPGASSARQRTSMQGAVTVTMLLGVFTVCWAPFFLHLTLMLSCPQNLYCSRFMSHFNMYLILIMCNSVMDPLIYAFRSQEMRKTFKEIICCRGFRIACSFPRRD

human wild type MC3R = biological target: T2, human wild type MC3R (Homo sapiens, UniProt P41968); experiment: cAMP GloSensor assay, MC3R; type: cell-based
T2 construct: expressed in transfected cells; host or cells: HEK293 / HEK 293T, pcDNA3.1(+)
T2 sequence (P41968 whole entry): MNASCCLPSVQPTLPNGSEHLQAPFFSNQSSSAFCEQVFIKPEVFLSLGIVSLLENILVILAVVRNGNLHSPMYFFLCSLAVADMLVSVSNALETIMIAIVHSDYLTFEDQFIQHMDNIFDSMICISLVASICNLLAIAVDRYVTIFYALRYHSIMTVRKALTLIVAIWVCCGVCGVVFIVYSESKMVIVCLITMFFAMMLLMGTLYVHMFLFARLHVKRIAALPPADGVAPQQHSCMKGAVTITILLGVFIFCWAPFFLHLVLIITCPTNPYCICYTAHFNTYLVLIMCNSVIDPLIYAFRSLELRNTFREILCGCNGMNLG

WT human MC4R [1] = biological target: T3, WT human MC4R (Homo sapiens, UniProt P32245); experiment: Gs ConfoSensor recruitment assay; type: cell-based; conditions: for EC50: WT human MC4R-expressing HEK293T cells
T3 construct: Flag (N); expressed in transfected cells; host or cells: HEK293T
T3 sequence (P32245 whole entry): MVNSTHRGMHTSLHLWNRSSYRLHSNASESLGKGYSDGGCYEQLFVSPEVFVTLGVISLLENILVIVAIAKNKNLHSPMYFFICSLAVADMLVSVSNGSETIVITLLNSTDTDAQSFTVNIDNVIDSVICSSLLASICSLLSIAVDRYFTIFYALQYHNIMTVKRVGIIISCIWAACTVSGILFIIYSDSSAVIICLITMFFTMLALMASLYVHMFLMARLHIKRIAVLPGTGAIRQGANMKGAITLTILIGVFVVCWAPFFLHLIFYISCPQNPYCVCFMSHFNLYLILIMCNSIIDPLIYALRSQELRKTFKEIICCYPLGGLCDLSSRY

[2] = tested on: moderately pigmented normal human epidermal melanocytes (NHEM-MP); experiment: In vitro pigmentation assay, melanin synthesis, 2D NHEM moderately pigmented; type: cell-based; conditions: 10 days
Experimental: Highly and moderately pigmented melanocytes were seeded in 24-well plates and cultured in culture medium for 24 hours. The medium was then replaced by culture medium containing or not (control) the test compounds or the reference compounds (L-tyrosine at 1 mM, IBMX at 100 and 200 μM and NDP-MSH at 10 μM). The cells were then incubated for 10 days with treatment renewal at day 3 and day 7. All experimental conditions were performed in n=3. At the end of the incubation time, the culture supernatants were removed, and melanin was extracted by cell lysis using a 0.5 N NaOH solution. The optical density (OD) of each experimental point was measured at 405 nm and melanin quantity was determined according to melanin standard curve (standard curve ranging from 0.39 to 100 μg/ml). The results were expressed in μg/ml of melanin. […] NHEM-HP response to L-tyrosine and NDP-MSH was stronger than in NHEM-MP while IBMX induced a stronger response in the NHEM-MP.

human MC5R = biological target: T4, human MC5R (Homo sapiens, UniProt P33032); experiment: Flow cytometry binding to Flag-tagged receptor in HEK293T cells, MC5R; conditions: 1 μM
T4 construct: Flag; expressed in transfected cells; host or cells: HEK293T
T4 sequence (P33032 whole entry): as the sequence (P33032 whole entry) above
Experimental: (§1) To confirm MC4R activation, dose-dependent nanobody-induced cAMP signaling was assessed (Lance Ultra HTRF). […] Binding of pN162 to the human melanocortin receptor subtypes MC1R, MC2R, MC3R, MC4R or MC5R transiently expressed as Flag-tagged receptors in HEK293T cells was assessed by flow cytometry.

WT human MC4R [3] = biological target: T3, WT human MC4R; experiment: β-arrestin recruitment assay; type: cell-based; conditions: for EC50: WT human MC4R-expressing HEK293T cells
human wild type MC4R [4] = biological target: T5, human wild type MC4R (Homo sapiens, UniProt P32245); experiment: cAMP signaling assay (Lance Ultra HTRF); type: cell-based; set-up: double Twin Strep tag; expressed in transfected cells; host or cells: HEK293; conditions: purified nanobodies, human MC4R-overexpressing HEK293 cells, read-out: potencies, MC4R-mediated dose-dependent cAMP accumulation
T5 sequence (P32245 whole entry): as the sequence (P32245 whole entry) above
Experimental: as §1

DIO mice = experiment: Diet-induced obese (DIO) mouse study, acute setting, ICV administration; type: in vivo
Experimental: The mouse studies described in Examples 2 and 3 were performed at a fully AAALAC accredited unit (Gubra, Denmark), and all animal experiments were conducted in accordance with the CRO's bioethical guidelines, which are fully compliant to internationally accepted principles for the care and use of laboratory animals. All experiments were licensed by the Danish Animal Experimentation Council. This animal model is based on male C57BI/6J mice that are fed for a minimum of 18 weeks a 60% high fat diet that result in rapid weight gain. The mice were obtained from commercial vendors in Europe and United States transferred to Gubra's animal unit. The animal room environment is controlled (targeted ranges: temperature 21±2° C.; relative humidity 50±10%). The animals are maintained on a reversed 12 h light/dark cycle and have access to plenty of bedding material, shelters and chewing sticks. Animals were dosed just before lights went off.
Male DIO mice (5 weeks of age at time of arrival and HF diet induction, 46 weeks of age at study start, n=50) had ad libitum access to 60% high fat diet (D12492, Research diets) and water. The DIO mice were acclimatized to an automated real-time food intake monitoring system (MoNI system) individually housed in the system for 14 days prior to study start. The animals went through ICV cannulation on study day −6/−5 and on study day−1, animals were randomized into 5 treatment groups (n=8 per group) based on body weight (PM, day−2).

human wild type MC4R [5] = biological target: T5, human wild type MC4R; experiment: cAMP GloSensor assay, MC4R; type: cell-based; set-up: Flag; expressed in transfected cells; host or cells: HEK293T
Experimental: as §1
HEK 293T cells were routinely maintained at 37° C., 5% CO2, under humidified atmosphere in Dulbecco's modified Eagle's medium (DMEM, Gibco, cat. no. 41966-029) supplemented with 10% heat-inactivated fetal bovine serum. In preparation of the experiments, cells were plated on poly-L-lysine coated white 96-well plates (Costar: 3917) at the density of 3,00E+04 cells/well. At the moment of seeding, cells were transfected with 25 ng of human MC4R in pcDNA3.1 (+) and 50 ng of p22F GLoSensor plasmid (Promega Corporation), empty pcDNA3.1 (+) vector was added to obtain 100 ng of total DNA, using XtremeGene HP (Roche). To evaluate cross-reactivity of different VHHs for other melanocortin receptors, cells were additionally transfected with 50 ng of DNA encoding one of the three melanocortin receptors MC1R/MC3R/MC5R in pcDNA3.1 (+) and 50 ng of p22F GLoSensor plasmid (Promega Corporation), using XtremeGene HP (Roche). After 24 h post transfection, growing medium was gently removed from the cells and replaced with 90 μl/well of Assay medium (OptiMEM media containing 10% FBS HI with 2% GloSensor reagent (Promega)) in which cells were incubated for 2 h at room temperature in the dark. Next, background luminescence level was recorded using the En Vision 2104 Multilabel Plate Reader (Perkin Elmer). Samples (purified VHH produced in E. coli and/or mammalian cells with or without FC fusion) or benchmark compounds were prepared at 10× working concentration in OptiMEM containing 10% heat-inactivated Fetal Bovine Serum (FBS). After addition of 10 μl of samples luminescence was recorded in a kinetic mode using the En Vision 2104 Multilabel Plate Reader (Perkin Elmer). Data were analyzed using GraphPad Prism 8 by applying nonlinear regression (curve fit).

human MC4R = biological target: T6, human MC4R (Homo sapiens, UniProt P32245); experiment: Flow cytometry binding to Flag-tagged receptor in HEK293T cells, MC4R; conditions: 1 μM
T6 construct: Flag; expressed in transfected cells; host or cells: HEK293T
T6 sequence (P32245 whole entry): as above
Experimental: as §1

[6] = GloSensor head-to-head receptor subtype comparison
[7] = Flag-tagged WT human MC4R HEK293T cells
[8] = absence vs presence of 1 mM Ca2+
[9] = pN162 0.5 and 5 nmol ICV on day 0 and day 2, study day 4

B1: pN162: agonistic anti-MC4R VHH, SEQ ID NO: 184; parental clone for potency maturation (protein)
VHH: QVQLVESGGGLVQPGGSLRLSCAASGSAFSLNVMGWYRQTPGNQRALVAEITKDGSTNYADSAKGRFTISRDNAKNTVHLQMDSLKPEDTAVYYCKARTGRIVRPLDYWGQGTQVTVSS
modifications: pN0162
With B1 the “detectable cAMP signaling, MC5R” value (human wild type MC5R; [6]) was “only induced detectable signaling on MC4R”, the “cAMP potency (EC50) MC5R” value (human wild type MC5R; GloSensor, average EC50, human MC5R) was “No effect” and the “detectable cAMP signaling, MC3R” value (human wild type MC3R; [6]) was “only induced detectable signaling on MC4R”. The “cAMP potency (EC50) MC3R” value (human wild type MC3R; GloSensor, average EC50, human MC3R) was “No effect”, the Gs recruitment (WT human MC4R [1]; [7]) was “dose-dependently recruits” and the EC50 (WT human MC4R [1]; No Ca^2+, read-out: Gs ConfoSensor No Ca^2+ (EC50)) was 8.5 ± 2.1 nM. The “dependence of Gs recruitment on Ca2+ ions” value (WT human MC4R [1]; [8]) was “independent of Ca^2+ ions”, the EC50 (WT human MC4R [1]; read-out: Gs ConfoSensor 1 mM Ca^2+ (EC50), 1 mM Ca^2+) was 12 ± 5 nM and the “modulation of melanin synthesis” value [2] was “did not modulate”. The “binding to MC5R by flow cytometry” value (human MC5R) was “No binding could be detected”, the β-arrestin2 recruitment (WT human MC4R [3]; [7]) was “dose-dependently recruits” and the EC50 (WT human MC4R [3]; No Ca^2+, read-out: β-arrestin No Ca^2+ (EC50)) was 16 ± 2.1 nM. For the same molecule, the “dependence of β-arrestin recruitment on Ca2+ ions” value (WT human MC4R [3]; [8]) was “independent of Ca^2+ ions”, the EC50 (WT human MC4R [3]; read-out: β-arrestin 1 mM Ca^2+ (EC50), 1 mM Ca^2+) was 23 ± 7.1 nM and the EC50 (human wild type MC4R [4]) was 0.7 nM. The “cumulative food intake after first dose” value (DIO mice; pN162 0.5 and 5 nmol ICV) was “reduced by pN162 in a dose-dependent manner”, the “cumulative food intake compared to vehicle” value (DIO mice; [9]) was “reduced” and the “relative body weight compared to vehicle” value (DIO mice; [9]) was “reduced”. The “reduced potency in cAMP signaling via human MC4R compared to setmelanotide” value (human wild type MC4R [5]; GloSensor) was 6.7 fold, the “detectable cAMP signaling, MC4R” value (human wild type MC4R [5]; [6]) was “only induced detectable signaling on MC4R” and the “potency ranking among agonistic nanobodies” value (human wild type MC4R [5]; GloSensor, Flag-tagged human wild type MC4R HEK293T cells) was “most potent full agonist nanobody”. The EC50 (human wild type MC4R [5]; Promega GloSensor, HEK293 transiently transfected, real-time, read-out: cAMP assay (GloSensor)) was 8.4 ± 3.29 nM, the EC50 (human wild type MC4R [5]; human wild type MC4R in HEK293T cells, read-out: average EC50, real-time cAMP monitoring (GloSensor), MC4R) was 13.2 ± 5.6 nM and the “binding to MC4R by flow cytometry” value (human MC4R) was “only demonstrated for MC4R”.
